Values belong to the binder of their own block, whether it stands above or below them.
Columns and labels:
[1] = target: 3XFLAG-CDK4 R24C (human, UniProt P11802 1-303, R24C); assay: affinity purification with mass spectrometry
[2] = target: 3XFLAG-CDK4 R24H (human, UniProt P11802 1-303, R24H); assay: affinity purification with mass spectrometry
Sequence of 3XFLAG-CDK4 R24H (P11802 whole entry R24H): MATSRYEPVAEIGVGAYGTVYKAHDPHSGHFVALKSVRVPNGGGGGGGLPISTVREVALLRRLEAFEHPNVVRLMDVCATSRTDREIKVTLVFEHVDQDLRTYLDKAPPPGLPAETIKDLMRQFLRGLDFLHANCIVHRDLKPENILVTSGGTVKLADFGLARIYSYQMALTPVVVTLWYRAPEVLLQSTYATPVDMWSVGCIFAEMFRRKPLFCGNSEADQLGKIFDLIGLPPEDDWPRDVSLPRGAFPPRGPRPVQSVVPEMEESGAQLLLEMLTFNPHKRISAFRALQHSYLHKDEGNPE

Sequence of 3XFLAG-CDK4 R24C (P11802 whole entry R24C): as the sequence (P11802 whole entry R24H) above, with H24C counted along it

- fold increase against CDK4 WT [1]: ≥ 3.9 fold
- fold increase against CDK4 WT [2]: ≥ 3.9 fold
B1: CDC37 co-chaperone (natural protein)
chain: MVDYSVWDHIEVSDDEDETHPNIDTASLFRWRHQARVERMEQFQKEKEELDRGCRECKRKVAECQRKLKELEVAEGGKAELERLQAEAQQLRKEERSWEQKLEEMRKKEKSMPWNVDTLSKDGFSKSMVNTKPEKTEEDSEEVREQKHKTFVEKYEKQIKHFGMLRRWDDSQKYLSDNVHLVCEETANYLVIWCIDLEVEEKCALMEQVAHQTIVMQFILELAKSLKVDPRACFRQFFTKIKTADRQYMEGFNDELEAFKERVRGRAKLRIEKAMKEYEEEERKKRLGPGGLDPVEVYESLPEELQKCFDVKDVQMLQDAISKMDPTDAKYHMQRCIDSGLWVPNSKASEAKEGEEAGPGDPLLEAVPKTGDEKDVSV

- fold increase against CDK4 WT [1]: ≥ 3 fold
- fold increase against CDK4 WT [2]: ≥ 3 fold
B2: HSP90AB1 (natural protein)
chain: not shown

Reference: PMC3882083 (Nature methods, 2013)
